{"source": "paper PMC3310279", "about": "(Bioconjugate Chemistry, 2012)", "tested_on": "MDA-MB-435 human breast tumor xenografts", "assay": "Biodistribution in mice bearing MDA-MB-435 xenografts", "assay_type": "in vivo", "conditions": "MDA-MB-435 tumor-bearing athymic nude mice, 60 min p.i., mean ± SD n = 4", "data": [{"substance": "[^99mTc(HYNIC-K(NIC)-3G-RGD2)(tricine)] [Complex 2]", "values": [{"measurement": "Tumor/Liver ratio", "result": "4.1 ± 0.97"}]}]}
